Experimental data published in PMC4095729.

B1: Humanized 3D6 version 1 (antibody, V domains shown)
VH: EVQLLESGGGLVQPGGSLRLSCAASGFTFSNYGMSWVRQAPGKGLEWVASIRSGGGRTYYSDNVKGRFTISRDNAKNSLYLQMNSLRAEDTALYYCVRYDHYSGSSDYWGQGTLVTVSS
VL: YVVMTQSPLSLPVTPGEPASISCKSSQSLLDSDGKTYLNWLLQKPGQSPQRLIYLVSKLDSGVPDRFSGSGSGTDFTLKISRVEAEDVGVYYCWQGTHFPRTFGQGTKVEIK
B2: Bapineuzumab (humanized 3D6, version 2) (antibody, V domains shown)
VH: EVQLLESGGGLVQPGGSLRLSCAASGFTFSNYGMSWVRQAPGKGLEWVASIRSGGGRTYYSDNVKGRFTISRDNSKNTLYLQMNSLRAEDTAVYYCVRYDHYSGSSDYWGQGTLVTVSS
VL: DVVMTQSPLSLPVTPGEPASISCKSSQSLLDSDGKTYLNWLLQKPGQSPQRLIYLVSKLDSGVPDRFSGSGSGTDFTLKISRVEAEDVGVYYCWQGTHFPRTFGQGTKVEIK

Molecular target: biotinylated DAE10 peptide (Aβ1-10 conjugated to biotin at the carboxy-terminus)
Experiment: SPR; BIAcore; biotinylated DAE10 peptide (Aβ1-10) immobilised on streptavidin coated chips at low density (4 to 7 RU); whole antibodies injected in triplicate at 100 nM, 30 μl/minute; apparent rate constants, bivalent model, KD corrected for active concentration of antibody

Row | Binder | Kd [nM] | koff [s⁻¹] | kon [M⁻¹ s⁻¹]
1 | B1 | 2.1 | 0.000399 | 189000
2 | B2 | 2.8 | 0.000423 | 150000
